Reference: publication PMC6446846 (The Journal of Cell Biology, 2019)
Each block holds one binder with its values, some of them ahead of it.

Biological target: T1, GST-KBP (kinesin-binding protein) (human, UniProt Q96EK5 1-621)
T1 sequence (looked up): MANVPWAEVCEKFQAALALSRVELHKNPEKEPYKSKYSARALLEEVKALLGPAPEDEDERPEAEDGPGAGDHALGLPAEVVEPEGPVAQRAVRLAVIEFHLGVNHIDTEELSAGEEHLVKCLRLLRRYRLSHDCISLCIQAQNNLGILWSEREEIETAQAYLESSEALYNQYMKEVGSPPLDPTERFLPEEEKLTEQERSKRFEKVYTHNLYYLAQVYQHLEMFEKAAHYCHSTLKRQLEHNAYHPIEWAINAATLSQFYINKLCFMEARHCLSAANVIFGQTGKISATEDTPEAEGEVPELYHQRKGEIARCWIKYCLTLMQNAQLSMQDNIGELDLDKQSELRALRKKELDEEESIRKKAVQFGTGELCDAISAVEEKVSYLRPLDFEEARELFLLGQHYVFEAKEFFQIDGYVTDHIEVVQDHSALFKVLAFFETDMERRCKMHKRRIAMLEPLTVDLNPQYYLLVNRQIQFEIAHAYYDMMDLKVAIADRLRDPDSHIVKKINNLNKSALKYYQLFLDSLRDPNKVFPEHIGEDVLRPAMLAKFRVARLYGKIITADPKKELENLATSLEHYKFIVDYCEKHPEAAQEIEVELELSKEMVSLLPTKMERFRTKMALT
Assay: pull-down

binding result: binds
B1: KIF18A-N480-GFP-His6 (domain or fragment, human, UniProt Q8NI77 1-480, looked up)
chain: MSVTEEDLCHHMKVVVRVRPENTKEKAAGFHKVVHVVDKHILVFDPKQEEVSFFHGKKTTNQNVIKKQNKDLKFVFDAVFDETSTQSEVFEHTTKPILRSFLNGYNCTVLAYGATGAGKTHTMLGSADEPGVMYLTMLHLYKCMDEIKEEKICSTAVSYLEVYNEQIRDLLVNSGPLAVREDTQKGVVVHGLTLHQPKSSEEILHLLDNGNKNRTQHPTDMNATSSRSHAVFQIYLRQQDKTASINQNVRIAKMSLIDLAGSERASTSGAKGTRFVEGTNINRSLLALGNVINALADSKRKNQHIPYRNSKLTRLLKDSLGGNCQTIMIAAVSPSSVFYDDTYNTLKYANRAKDIKSSLKSNVLNVNNHITQYVKICNEQKAEILLLKEKLKAYEEQKAFTNENDQAKLMISNPQEKEIERFQEILNCLFQNREEIRQEYLKLEMLLKENELKSFYQQQCHKQIEMMCSEDKVEKATGKR

binding result: binds
B2: His6-KIF15-N420 (domain or fragment, human, UniProt Q9NS87 1-420, looked up)
chain: MAPGCKTELRSVTNGQSNQPSNEGDAIKVFVRIRPPAERSGSADGEQNLCLSVLSSTSLRLHSNPEPKTFTFDHVADVDTTQESVFATVAKSIVESCMSGYNGTIFAYGQTGSGKTFTMMGPSESDNFSHNLRGVIPRSFEYLFSLIDREKEKAGAGKSFLCKCSFIEIYNEQIYDLLDSASAGLYLREHIKKGVFVVGAVEQVVTSAAEAYQVLSGGWRNRRVASTSMNRESSRSHAVFTITIESMEKSNEIVNIRTSLLNLVDLAGSERQKDTHAEGMRLKEAGNINRSLSCLGQVITALVDVGNGKQRHVCYRDSKLTFLLRDSLGGNAKTAIIANVHPGSRCFGETLSTLNFAQRAKLIKNKAVVNEDTQGNVSQLQAEVKRLKEQLAELASGQTPPESFLTRDKKKTNYMEYFQE
